Assay results published in the RNAGym collection of RNA variant scans (doi:10.7554/elife.80360).

B1: Hammerhead Ribozyme (parent)
chain: ACCGGAUGUGCUUUCCGGUCUGAUGAGUCCGUGAGGACGAAACAG

Variants of: B1
Assay: self-cleavage, relative activity (ratio to wild type); higher = more cleavage; co-transcriptional

Point of comparison: A1C C38G, self-cleavage 0.39. Against it:
- A34C G35C — higher, 0.398
- G27C G31C — higher, 0.666
- G17A G39A — lower, 0.326
- G33A C43A — lower, 0.369
- C16A A37U — higher, 0.616
- C16G U28G — higher, 0.592
- U14A C16A — higher, 0.592
- A1C A6G — higher, 0.417
- A37C A44C — lower, 0.28
- G22U A23C — lower, 0.284
- U9C U24A — higher, 1.29
- U19G G36U — lower, 0.301
- A1U U21A — higher, 0.614
- A40U A42G — lower, 0.261
- C29G C38G — higher, 0.424
- A1U G5C — lower, 0.287
- U21C G31U — higher, 0.83
- C3U U12C — higher, 0.99
- C30U A34U — higher, 0.93
- A6U G36C — lower, 0.334
- U7G C38G — higher, 0.521
- C30A A34U — higher, 0.66
- U24C G45A — higher, 0.465
- C20A C29G — lower, 0.311
- G25U G27U — lower, 0.31
- C15G G22U — lower, 0.352
- C30A — higher, 0.919
- G22A C29G — lower, 0.332
- U9G G39C — lower, 0.33
- G10C A40U — lower, 0.28
- U9G U14C — higher, 0.41
- G10C G45A — higher, 0.996
- A1C U7A — lower, 0.29
- U12C C30U — higher, 0.683
- U7A C16A — higher, 1.29
- U13G C38G — higher, 0.531
- A44G G45C — higher, 2.15
- G39A A42U — lower, 0.348
- U21A C30U — higher, 0.57
- C11G A42U — lower, 0.326
- C2U U7C — higher, 0.541
- C29G A42C — higher, 0.407
- A1C A26G — lower, 0.302
- C30U G31C — higher, 1.11
- U14C C29G — higher, 0.497
- U14C G25C — lower, 0.228
- U7A C29G — higher, 0.663
- U24A — higher, 1.03
- C16G A23C — lower, 0.369
- C20A U21G — lower, 0.326
- A26G G39C — lower, 0.309
- A6G G17U — higher, 0.393
- G8C C38A — higher, 0.8
- G8A C29U — higher, 0.966
- C2G U7A — lower, 0.364
- U9A C15U — higher, 0.848
- U12G G35U — higher, 0.583
- A6U G22U — higher, 0.397
- G4U U13G — higher, 0.725
- G5A U12A — higher, 1.22
- U13G G17C — higher, 0.572
- C15A A26C — higher, 0.437
- G4A G10U — higher, 0.734
- C20G G27U — lower, 0.265
- U9C G36C — higher, 0.82
- G18A C38A — higher, 0.596
- U13G G36A — higher, 0.628
- C2A — higher, 0.866
- G10C G17U — higher, 0.932
- A6G C16A — higher, 0.825
- G25U A37G — lower, 0.287
- G5C C15A — higher, 0.953
- U12G C38G — higher, 0.813
- A6G U14A — higher, 0.436
- A44C G45C — higher, 1.14
- A6C G10U — higher, 1.01
- U28A C29A — higher, 0.682
- C20U G45U — lower, 0.387
- U14A A37G — higher, 0.811
- C2A U9A — higher, 0.563
- G5U C38G — lower, 0.349
- C2A G33C — higher, 0.888
- G5C U13G — higher, 0.85
- C30A G36C — higher, 0.525
- A6C A41U — lower, 0.383
- G35C A44C — higher, 0.42
- U14A U28C — higher, 0.923
- G18U A26G — lower, 0.339
- C15U G31U — higher, 0.881
- G18A G22A — lower, 0.276
- G10U U28A — higher, 0.771
- G5C U14G — higher, 0.929
- U14G G36U — higher, 0.565
- U21A G25U — lower, 0.333
- A34C G45C — higher, 0.441
- G10A A44C — higher, 0.517
- C38A C43A — lower, 0.335
- C15G U21A — higher, 0.424
- C3U G22U — lower, 0.381
- C20A G39C — higher, 0.393
- G22A C38U — lower, 0.328
- G4U C11G — higher, 0.52
- G18A G33U — higher, 0.726
- U12A C15G — higher, 0.85
- G8C C30A — higher, 0.708
- G18U U21G — higher, 0.426
- G27U — higher, 0.561
- C16G A41C — lower, 0.376
- U7C U32G — higher, 0.626
- A23C A26C — lower, 0.376
- C16A U19A — lower, 0.34
- A6C U28C — higher, 0.604
- G18A A34U — higher, 0.515
- G33A — higher, 1.03
- A23U G45A — lower, 0.336
- G5U C29G — higher, 0.434
- U13C A44U — higher, 0.923
- C11U A40U — lower, 0.296
- C3A C11A — higher, 0.754
- C29G A41C — lower, 0.269
- G22A A23G — lower, 0.313
- G8C A42G — lower, 0.311
- C3A A41C — lower, 0.299
- C16G U24C — higher, 0.942
- C16A U24C — higher, 1.33
- A6U G17C — lower, 0.354
- G39C A44U — higher, 0.415
- G4U G27C — lower, 0.35
- G5U C15A — higher, 1.43
- G4C G35C — lower, 0.341
- U24A G36A — higher, 0.669
- U28C G31U — higher, 0.854
- G33C A40C — higher, 0.566
- G4A U32C — higher, 0.516
- C11U U14C — higher, 0.771
- A6U G45C — the same, 0.39
- G36U G45U — higher, 0.441
- G5A C29G — higher, 0.464
- G25C A42G — lower, 0.27
- G5A U24C — higher, 1.43
- C3A U14A — higher, 0.422
- G25C A44G — higher, 0.556
- U21G G35A — lower, 0.28
- G27U A40G — lower, 0.298
- G4A A37C — higher, 0.491
- G18U A23C — lower, 0.367
- C20U C43G — lower, 0.278
- U28A C38U — higher, 0.703
- G5A A23C — lower, 0.315
- C2G U13C — higher, 0.4
- U28G U32A — higher, 0.83
- A6G C38U — higher, 0.629
- C11A A40U — lower, 0.29
- G33A A40U — higher, 0.525
- U32G C38A — higher, 0.674
- A6U C38U — higher, 0.627
- G31A G33C — higher, 0.767
- U9A U28G — higher, 0.823
- G4A G39C — lower, 0.319
- A1U A34U — higher, 0.452
- C30U U32G — higher, 1.17
- G10C C11A — higher, 1.11
- U7A A44G — higher, 1.46
- G5A G25C — lower, 0.268
- G4C G39A — lower, 0.326
- U9G U32C — higher, 1.21
